Residue numbers refer to the chain shown, from its start. Values belong to the binder of their own block, whether it stands above or below them.
Biological target: T1, human transferrin receptor (recombinant, for surface plasmon resonance) (human, UniProt P02786 89-760)
T1 construct: also called huTfR; human transferrin receptor-biotinylated
Experiment: SPR 25C

T1 sequence (P02786 89-760 limits assumed): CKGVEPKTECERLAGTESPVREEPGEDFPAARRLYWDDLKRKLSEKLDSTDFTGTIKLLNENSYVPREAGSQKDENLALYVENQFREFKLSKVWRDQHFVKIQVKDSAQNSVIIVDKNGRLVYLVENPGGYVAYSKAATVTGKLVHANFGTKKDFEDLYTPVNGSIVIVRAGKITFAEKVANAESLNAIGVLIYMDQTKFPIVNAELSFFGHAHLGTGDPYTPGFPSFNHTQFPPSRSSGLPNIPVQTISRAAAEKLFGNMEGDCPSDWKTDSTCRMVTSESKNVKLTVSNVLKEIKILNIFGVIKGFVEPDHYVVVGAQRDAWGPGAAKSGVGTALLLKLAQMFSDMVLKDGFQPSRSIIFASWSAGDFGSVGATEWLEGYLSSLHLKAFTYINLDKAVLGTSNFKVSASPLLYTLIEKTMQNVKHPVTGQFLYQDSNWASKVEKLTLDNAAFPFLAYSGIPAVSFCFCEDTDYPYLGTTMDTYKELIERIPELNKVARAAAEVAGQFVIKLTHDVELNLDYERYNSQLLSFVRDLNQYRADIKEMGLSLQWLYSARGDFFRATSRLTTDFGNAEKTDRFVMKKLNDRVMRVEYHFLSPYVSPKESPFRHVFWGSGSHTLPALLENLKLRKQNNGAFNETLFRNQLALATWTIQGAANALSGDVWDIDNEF

B2: 2/99 VH12/VL1 (antibody, V domains shown)
VH: QVQLQESGPGLVKPSETLSLTCTVSGFSLSSYAMSWIRQPPGKGLEWIGYIWSGGSTDYNPSLKSRVTISVDTSKNQFSLKLSSVTAADTAVYYCARRYGTSYPDYGDANGFDPWGQGTLVTVSS
VL: DIQMTQSPSSLSASVGDRVTITCRASQSISSYLNWYQQKPGKAPKLLIYRASSLQSGVPSRFSGSGSGTDFTLTISSLQPEDFATYYCQQSYSSSNVDNTFGGGTKVEIK
- koff: 0.001 s⁻¹

B3: 2/99 VH5/VL1 (antibody, V domains shown)
VH: QSMEETGGGLIQPGGSLRLSCAASGFSLSSYAMSWVRQAPGKGLEWVGYIWSGGSTDYADSVKGRFTISRDNSKNTLYLQMNSLRAEDTAVYYCARRYGTSYPDYGDANGFDPWGPGTLVTVSS
VL: B2 VL
- koff: 0.001 s⁻¹

B4: 2/99 VH21/VL1 (antibody, V domains shown)
VH: QSMQESGPGLVKPSQTLSLTCTVSGFSLSSYAMSWIRQHPGKGLEWIGYIWSGGSTDYASWAKSRVTISVDTSKNQVSLKLSSVTAADTAVYYCARRYGTSYPDYGDANGFDPWGQGTLVTVSS
VL: B2 VL
- koff: 0.00771 s⁻¹

B5: 2/99 VH11/VL2 (antibody, V domains shown)
VH: B3 VH with S2Q, M3L, E4L, T6S, I11V, P116Q
VL: B2 VL with S53T, Q55A
- koff: 0.00385 s⁻¹

B6: 2/99 VH8/VL1 (antibody, V domains shown)
VH: QQLVETGGGLIQPGGSLRLSCAASGFSLSSYAMSWVRQAPGKGLEWIGYIWSGGSTDYASWAKGRFTISKTSTTLYLQMNSLRAEDTAVYYCARRYGTSYPDYGDANGFDPWGQGTLVTVSS
VL: B2 VL
- koff: 0.00319 s⁻¹

B7: 2/99 VH22/VL1 (antibody, V domains shown)
VH: B4 VH with I36V
VL: B2 VL
- koff: 0.00578 s⁻¹

B8: 2/99 VH11/VL1 (antibody, V domains shown)
VH: B3 VH with S2Q, M3L, E4L, T6S, I11V, P116Q
VL: B2 VL
- koff: 0.001 s⁻¹

B9: 2/99 VH23-DANG/VL1 (antibody, V domains shown)
VH: QSMQESGPGLVKPSQTLSLTCTVSGFSLSSYAMSWIRQHPGKGLEWIGYIWSGGSTDYASWAKSRVTISKTSTTVSLKLSSVTAADTAVYYCARRYGTSYPDYGDANGFDPWGQGTLVTVSS
VL: B2 VL
- koff: 0.0028 s⁻¹

B10: 2/99 VH12/VL2 (antibody, V domains shown)
VH: B2 VH
VL: B2 VL with S53T, Q55A
- koff: 0.00635 s⁻¹

B11: 2/99 VH7/VL2 (antibody, V domains shown)
VH: B3 VH with S2Q, M3L, E4V, V47I, D60S, S61W, V62A, P116Q
VL: B2 VL with S53T, Q55A
- koff: 0.00131 s⁻¹

B16: 2/99 VH18/VL2 (antibody, V domains shown)
VH: B2 VH with E16Q, P40H, N60A
VL: B2 VL with S53T, Q55A
- koff: 0.00489 s⁻¹

B18: 2/99 VH16/VL2 (antibody, V domains shown)
VH: B4 VH with S2Q, M3L, Q15E, I36V, H39P, A59N, S60P, W61S, A62L, Q116P
VL: B2 VL with S53T, Q55A
- koff: 0.00197 s⁻¹

B19: 2/99 VH9/VL1 (antibody, V domains shown)
VH: B3 VH with S2Q, M3L, E4L, T6S, I11V, S27T, L28F, R96K, P116Q
VL: B2 VL
- koff: 0.00694 s⁻¹

B22: 2/99 VH19/VL1 (antibody, V domains shown)
VH: B4 VH with S60P, W61S, A62L, V77F
VL: B2 VL
- koff: 0.001 s⁻¹

B23: 2/99 VH17/VL2 (antibody, V domains shown)
VH: QQLQESGPGLVKPSETLSLTCTVSGFSLSSYAMSWVRQPPGKGLEWIGYIWSGGSTDYNPSLKSRVTISKDTSKNQVSLKLSSVTAADTAVYYCARRYGTSYPDYGDANGFDPWGPGTLVTVSS
VL: B2 VL with S53T, Q55A
- koff: 0.00105 s⁻¹

B27: 2/99 VH16/VL1 (antibody, V domains shown)
VH: B23 VH with K70V
VL: B2 VL
- koff: 0.00771 s⁻¹

B29: 2/99 VH7/VL1 (antibody, V domains shown)
VH: B3 VH with S2Q, M3L, E4V, V47I, D60S, S61W, V62A, P116Q
VL: B2 VL
- koff: 0.00752 s⁻¹

B30: 2/99 VH15/VL1 (antibody, V domains shown)
VH: B23 VH with K70V, P116Q
VL: B2 VL
- koff: 0.00772 s⁻¹

B34: 2/99 VH20/VL2 (antibody, V domains shown)
VH: B4 VH with S60P, W61S, A62L
VL: B2 VL with S53T, Q55A
- koff: 0.00525 s⁻¹

B35: 2/99 VH0(rb)/VL0(rb) (antibody, V domains shown)
VH: QSMEESGGRLVTPGTPLTLTCTVSGFSLSSYAMSWVRQAPGKGLEWIGYIWSGGSTDYASWAKGRFTISKTSTTVDLKITSPTTEDTATYFCARRYGTSYPDYGDANGFDPWGPGTLVTVSS
VL: AYDMTQTPASVEVAVGGTVTIKCQASQSISSYLSWYQQKPGQRPKLLIYRASTLASGVSSRFKGSGSGTQFTLTISGVECADAATYYCQQCYSSSNVDNTFGGGTEVVVKR
notes: 0 (rb) read as the rabbit parental domains of clone 2/99
- koff: 0.000434 s⁻¹

The next lines start with the values.

- koff: 0.001 s⁻¹
B1: 2/99 VH1/VL1 (antibody, V domains shown)
VH: B3 VH with Q1V, S2Q, M3L, E4V, P116Q
VL: B2 VL

- koff: 0.00101 s⁻¹
B12: 2/99 VH8/VL2 (antibody, V domains shown)
VH: B6 VH
VL: B2 VL with S53T, Q55A

- koff: 0.001 s⁻¹
B13: 2/99 VH6/VL1 (antibody, V domains shown)
VH: B3 VH with S2Q, M3L, E4V, V47I, P116Q
VL: B2 VL

- koff: 0.00241 s⁻¹
B14: 2/99 VH5/VL2 (antibody, V domains shown)
VH: B3 VH
VL: B2 VL with S53T, Q55A

- koff: 0.001 s⁻¹
B15: 2/99 VH13/VL1 (antibody, V domains shown)
VH: B2 VH with F78V
VL: B2 VL

- koff: 0.001 s⁻¹
B17: 2/99 VH20/VL1 (antibody, V domains shown)
VH: B4 VH with S60P, W61S, A62L
VL: B2 VL

- koff: 0.00216 s⁻¹
B20: 2/99 VH15/VL2 (antibody, V domains shown)
VH: B23 VH with K70V, P116Q
VL: B2 VL with S53T, Q55A

- koff: 0.00769 s⁻¹
B21: 2/99 VH19/VL2 (antibody, V domains shown)
VH: B4 VH with S60P, W61S, A62L, V77F
VL: B2 VL with S53T, Q55A

- koff: 0.00246 s⁻¹
B24: 2/99 VH13/VL2 (antibody, V domains shown)
VH: B2 VH with F78V
VL: B2 VL with S53T, Q55A

- koff: 0.00187 s⁻¹
B25: 2/99 VH6/VL2 (antibody, V domains shown)
VH: B3 VH with S2Q, M3L, E4V, V47I, P116Q
VL: B2 VL with S53T, Q55A

- koff: 0.00286 s⁻¹
B26: 2/99 VH1/VL2 (antibody, V domains shown)
VH: B3 VH with Q1V, S2Q, M3L, E4V, P116Q
VL: B2 VL with S53T, Q55A

- koff: 0.001 s⁻¹
B28: 2/99 VH2/VL1 (antibody, V domains shown)
VH: EVQLVETGGGLIQPGGSLRLSCAASGFSLSSYAMSWVRQAPGKGLEWVGYIWSGGSTDYADSVKGRFTISRDNSKNTLYLQMNSLRAEDTAVYYCARRYGTSYPDYGDANGFDPWGQGTLVTVSS
VL: B2 VL

- koff: 0.00433 s⁻¹
B31: 2/99 VH17/VL1 (antibody, V domains shown)
VH: B23 VH
VL: B2 VL

- koff: 0.00275 s⁻¹
B32: 2/99 VH2/VL2 (antibody, V domains shown)
VH: B28 VH
VL: B2 VL with S53T, Q55A

- koff: 0.001 s⁻¹
B33: 2/99 VH18/VL1 (antibody, V domains shown)
VH: B2 VH with E16Q, P40H, N60A
VL: B2 VL

Reference: US20180291110A1 (Hoffmann-La Roche, published 2018)
